In the assay the target is LexA-PRAME, P78395. Kind of assay: yeast two hybrid. To be noted: chain shown with the change; LexA-PRAME (1-509); β-galactosidase activity normalised to amount of protein in the extracts; parent: est. 160; read off a plot.
Sequence of LexA-PRAME, P78395 (P78395 whole entry): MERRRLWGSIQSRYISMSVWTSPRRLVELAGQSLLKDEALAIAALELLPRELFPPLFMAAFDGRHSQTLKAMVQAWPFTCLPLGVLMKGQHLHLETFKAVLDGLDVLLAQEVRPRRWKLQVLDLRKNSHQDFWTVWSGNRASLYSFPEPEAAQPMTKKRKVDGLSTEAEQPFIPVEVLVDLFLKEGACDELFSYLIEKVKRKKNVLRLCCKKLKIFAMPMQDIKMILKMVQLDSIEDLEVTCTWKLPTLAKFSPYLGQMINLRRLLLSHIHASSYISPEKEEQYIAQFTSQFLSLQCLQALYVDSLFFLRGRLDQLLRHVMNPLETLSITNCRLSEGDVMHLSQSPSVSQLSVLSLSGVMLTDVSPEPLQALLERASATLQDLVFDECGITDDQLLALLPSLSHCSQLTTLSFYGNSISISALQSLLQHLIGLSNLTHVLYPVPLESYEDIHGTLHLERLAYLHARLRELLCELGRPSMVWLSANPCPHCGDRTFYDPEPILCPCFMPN

B1: GAL4 AD-fused C. elegans ELC (wELC) L47D; L49D; Y88D; Y91D (protein)
chain: MADQNNAIQCDQDAAQPKQYGGIEGPTSQYVKLVSSDDHEFIIKREDADTSGTIRAMLSGPGVYAENESNVVYFREIPSHVLQKVCQDFADKVRYTHAATEIPEFPIPPDVALELLMAANFLDC
Regarding B1, the response (Units β-Galactosidase) came out at 5.

Values taken from paper PMC3584020.
